In the nanobody polyreactivity screen of Harvey et al. (2022):

Assay: yeast display, Sf9 membrane polyspecificity reagent, FACS + sequencing; frameworks hold sequencing errors
Summary of the method: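 Synthetic nanobody libraries on Saccharomyces cerevisiae BJ5465 were galactose-induced for 36–48 hours, stained 1 hour at 4 °C with 10% biotinylated, detergent-solubilized Sf9 membrane reagent and enriched on streptavidin microbeads. FACS then separated cells into low and high (top ~1%) gates by anti-HA (expression) and streptavidin (reagent binding) fluorescence. Genes were colony-PCR amplified, MiSeq 2 × 250 sequenced and CDR-length filtered. A clone's polyreactivity label is that of its gate of origin.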

Sequence | polyreactivity (PSR sort gate)
QVQLVESGGGLVQAGGSLRLSCAASGRIFPKYAMGWYRQAPGKERELVAGITKRVGSTYYADSVKGRFTISRDNAKNTVYLQMNSLKPEDTAVYYCAKRWVSRTHGYWGQGTQVTVSS | low polyreactivity
QVQLVESGGGLVQAGGSLRLSCAASGFIFRGYAMGLYRQAPGKERELVAAISKSGGSTYYADSVKGRFTISRDNAKNTVYLQMNSLKPEDTAVYYCATDILIDGFYYDYWGQGTQVTVSS | high polyreactivity
QVQLVESGGGLVQAGGSLRLSCAASGRIFYGYTMGWYRQAPGKERELVASIDYSTGRTYYADSVKGRFTISRDNAKNTVYLQMNSLKPEDTAVYYCNADPNYSLLRYDYWGQGTQVTVSS | high polyreactivity
QVQLVESGGGLDQAGGSLRLSCAASGNTFFWPNAMGWYRQAPGKERELFAGISYRGASTYYADSVKGRFTISRDNAKNTVYLQMNSLKPEDTAVYYCAADNTPRGRRQNRDMYYWGQGTQVTVSS | high polyreactivity
QVQLVESGGGFVQAGGSLRLSCAASGYTLRIYAMGWYRQAPGKERELVAAISRSGGRTFYADSVKGRFTISRDNAKNTVYLQMNSLKPEDSAVYYCAAVPRSYDTGRMDYWGQGTQVTVSS | high polyreactivity
QDQLVESGGGLVQAGGSLRLSCAASGFTFDENAMGWYRQAPGINYSGASTYYADSVKGRFTISRDNAKNTVYLQMNSLKPEDTAVYYCAAEVVAQMNYWGQGTQVTVSS | low polyreactivity
QVQLVESGGGLVQAGGSLRLSCAASGRSFNYNTMGWYRQAPGKERELVAAINKGGTRTYYADSVKGRFTISRDNAKNTVYLQMNSLKPEDTAVYYCAARLYSYDYWGQGTQVTVSS | high polyreactivity
QVQLVESGGGLVQAGGSLRLSCAASGITIVNYVMGWYRKAPGKERELVAAISIGGGTYYADSVKGRFTISRDNAKNTVYLQINSLKPEDTAVYYCNASYGGLSFYIGVYVTGYDYWGQGTQVTVSS | low polyreactivity
QVHLVESGGGLVQAGVSLRLSCAASGFTFYRNAMGWYRQAPGKERELVAAISSRGGSTYYADSVKGRFTISRYNANNTVYFQMNSLKPEDTAVYYCAAYGNYNEYDYWGPGTQVTVSS | high polyreactivity
QVPLVESGGGLVQAGGSLRLSCAASGRIFSSYAMGWYRQAPGKERELVAAISSRGGSTYYADSVKGRFTISRDNAKNTVYLQMNSLKPEDTAVYYCARVKYSGVVYKYDYWGQGTQVTVSS | high polyreactivity
QVQLVESGGGLDQAGGSLRLSCAASGSTFQAYARGWYRQAPGKERELVAAISRRSGSTYYADSVKGRFTISRDNAKNTVYLQMNSLKPEDTAVYYCNAGSRRPYDYWGQGTQVTVSS | low polyreactivity
QVHLVESGGGLVQAGGSLRLSCAASGFTFYSYAMGWYRQAPGKERELVANITIGGSTYADSVKGRFTISRDNAKNTVYLQMNSLKPEDTAVYYCARGYRVVGDPLYGDYDYWGQGTQVTVSS | low polyreactivity
QVQLVESGGGLVQAGGSLRLSCAASGSTFIRYAMGWYRQAPGKERELVAAIRRTGASTYYADSVKGRFTISRDNAKNTVYLQMNSLKPEDTAVYYCAARYSIWSWNGLDYWGQGTQVTVSS | high polyreactivity
QVQLGESGGGLVQAGGSLRLSCAASGSTFTRYGMGWYRQAPGKERELVAAITTSGSSTYYADSVKGRFTISRDNAKNTVYLQMNSLKPEDTAVYYCAADWSSWGFDYWGQGTQVTVSS | low polyreactivity
QVQLVESGGGLVQAGGSLRLICAASGSTFYSYAMGWYRQAPGKERELVAVISWSGGSTYYADSVKGRFTISRDNAKNTVYLQMNSLKPEDTAVYYCAAESYYSDDWYYAYYYWGQGTQVTVSS | high polyreactivity
QVQLVESGGGLVQAGGSLRLSCAASGFTFRYYAMGRSRQAPGKERELVAAITGSGVNTYYADSVKGRFTISRDNAKNTVYLQMNSLKPEDTAVYYCAAESESDPLFDRYYWGQGTQVTVSS | high polyreactivity

Sequence | polyreactivity (PSR sort gate)
QVQLVESGGGLVQAGGSLRLSCAASGFIFYHYAMGWYRQAPGKRRELVAAISYSGGSTYYADSVKGRFTISRDNGKNTVYLQMNSLKPEDPAVYYCNAVYHTRLYTLSTFDYWGQGTQVTVSS | high polyreactivity
QVQLVESGGGLVQAGGSLRLSCAASGRTFQDYAMGWYRQAPGKERELVAVINSGGSTYYADSVKGRFTISRDNAKNTVYLQMNSLKPEDTAVYYCAKGYWFYPWYHGYYWGQGTQVTVSS | high polyreactivity
QVQLVESGGGLVQAGGSLRLSCAASGSTFRVYAMGWYRQAPGKERELVAGISWRGGSTSYADSVKGRFTISRDNAKNTVYLQMNSLKPEDTAVYYCAVQRSYVGPRQYNYWGQGTQVTVSS | high polyreactivity
QVQLVESGGGLVQAGGSLRLSCAASGSIFYRYAKGWYRQPPGKETELVAAIRTTGGRTYYADSVKGRFTISRDNAKNTVYLQMNSLKPADTAVYYCNALQAGVSYDYWGQGTQVTVSS | high polyreactivity
QVQLVESGGGLVQAGGSLRLSCAASGSTFKYYAMGWYRQAPGKEREFVASINWSGVSTYYADSVKGRFTISRDNAKNTVYLQMNSLKPEDTAVYYCAARVRGKYDYWGQGTQVTVSS | high polyreactivity
QVQLEESCGGLVQAGGSLRLSCAASGSTFTIYAMGWYRQAPGKERELVAVISSSGGSTYYADSVKGRFTISRDNAKNTVYLQMNSLKPEDTAVYYCAADTRYFGGYLTLYYWGQGTQVTVSS | low polyreactivity
QVQLVESGGGLVQAGGSLRLSCAASGIIFDRYAMGWYRQAPGKEREFVAAISRRGGSTYYADSVKGRFTISRDNAKNTVYLQMNSLKPEDTAVYYCAKEIRYSSSVSESDYWGQGTQVTVSS | high polyreactivity
QVQLVESGGGLVQAGGSLRLSCAASGRIFYKYAMGWYRPAPGKERELVAAISWSGGRTYYADSVKGRFTISRDNAKNTVYLQMNSLKPEDTAVYYCNAVYAGFLRVRYDYWGQGTQVTVSS | high polyreactivity
QVQLVESGGGLVQAGGSLRLSCAASGFIFGGYAMGWYRQAPGKEREFVAAIRQRGGSTYYADSVKGRFTISRDNAKNTVYLQMNSLKPEDTAVYFCAATVRAVQASVRYGYWGQGTQVTVSS | high polyreactivity
QVQLVDSGAGLVQAGGSLRLICAASGSIFPYYAMGWYRQAPGKERELVAGISNGDSTNYADSVKGRFTISGDNAKNTVYLQINSLKPEDTAVYYCSTVLPGGRYYGPYDFWGQGTQVTVSS | low polyreactivity
QVQLVESGGGLVQAGGSLRLSCAASGIIFDSYAMGLYRQAPGKERELVAAITSRGGRTYYADSVKRRFTISRENAKNTVYLQMNSLKPEDTAVYYCAARAIYDRRTEGTSGYDYWGPGTQVTVSS | low polyreactivity
QVQLVESGGGLVQAGGSLRLSCAASGFTFYPYAMGWYRQAPGKERELVAAITSGGRTNYADSVKGRFTISRDNAKNTVYLQMNSLKPEDTAVYYCNTVSWWGRNYQDEYYYWGQGTQVTVSS | high polyreactivity
QVQLVETGGGLVQAGGSLRLSCAASGITITVYAMGWYRQAPGKERELVAAINSGSSTNYADSVKGRFTISRDNAKNTVYLQMNSLKTEVTAVYYCDASYRTLPDKKRYCYWGQGTQVTVSS | high polyreactivity
QVQLVESGGGLVQAGGSLRLSCAASGRIFRRYAMGWYRQAPGKERELVAAISSTGGNTYYADSVKGRFTISRDNAKNTVYLQMNSLKPEDTAVYYCATRAFYLRGNGYWGQGTQVTVSS | high polyreactivity
QVQLVESGGGLVQAGGSLRLSCAASGYTFAGNAMGWYRQAPGKERELVAAISRSGGRTYYADSVKGRFTISRDNAKNTVYLQMNSLKPEDTAVYYCAAYGYKYDYWGQGTQVTVSS | high polyreactivity
QVQHVESGGGLVQAGGSLRLSCAASGSTFGGYTMGWSRQAPGTERELVASIRSGGSTYYADSVKGRFTISRDNAKNTVYLQMNSLKPEVTAVYYCAADGRRDRDYWGQGTQVTVSS | high polyreactivity
